Drawing on article PMC3796546, this text covers ratio to parent and other: sum for 1 substance.

A value given as a limit tells only on which side of the number the result lay.

What all share (assay): co-IP with mass spectrometry
The target in one assay is HOM2. The settings on record: cross-linked in vivo with formaldehyde, p value 0.02371.
The next assay has as its target TY1B-BR. The settings on record: cross-linked in vivo with formaldehyde, p value 0.09425.
In a further assay the target is ADO1. The settings on record: cross-linked in vivo with formaldehyde, p value 0.02371.
The next assay has as its target RPL13A/B. The settings on record: cross-linked in vivo with formaldehyde, p value 0.05060.
Another assay addresses PFK2. The settings on record: cross-linked in vivo with formaldehyde, p value 0.14162.
In the next assay the target is SUP35. The settings on record: cross-linked in vivo with formaldehyde, p value 0.08282.
A further assay deals with TY1B-ER1. The settings on record: cross-linked in vivo with formaldehyde, p value 0.21132.
The next assay has as its target REP1. The settings on record: cross-linked in vivo with formaldehyde, p value 0.25926.
In another assay the target is ARF2. The settings on record: cross-linked in vivo with formaldehyde, p value 0.05060.
The target in the next assay is ENO1. The settings on record: cross-linked in vivo with formaldehyde, p value 0.14901.
The next assay deals with HHF1. The settings on record: cross-linked in vivo with formaldehyde, p value 0.08671.
The target of another assay is RPL36A. The settings on record: cross-linked in vivo with formaldehyde, p value 0.13485.

For “N-terminal 3xHA-tagged wild-type Irc20 (from UniProt Q06554) C1239A”, the ratio to parent is 2 with HOM2; more than 9 with TY1B-BR; 5 with ADO1; 2.2 with RPL13A/B; 6 with PFK2; 2.14 in the assay with SUP35. Further, the ratio to parent with TY1B-ER1 was more than 6; in the assay with REP1, 2; with ARF2, 2.5; with ENO1, 3.5; with HHF1, 2; with RPL36A it was more than 4. Also, the other: sum with HOM2 (parent: 4) was 8; with TY1B-BR (parent: 0) it was 9; in the assay with ADO1 (parent: 1), 5; with RPL13A/B (parent: 5) it was 11; with PFK2 (parent: 1), 6; with SUP35 (parent: 7), 15. The other: sum in the assay with TY1B-ER1 (parent: 0) stood at 6; with REP1 (parent: 2), 4; with ARF2 (parent: 2) it was 5; with ENO1 (parent: 2) it was 7; with HHF1 (parent: 4) it was 8; with RPL36A (parent: 0), 4.
